Source: patent publication US20140356384A1 (COLE POLYTECHNIQUE F D RALE DE LAUSANNE EPFL, published 2014)
Blank lines part the entries; values can stand above or below the binder they belong to.

What was measured:
[1] = target: T1, mouse glycophorin-A (GYPA) on the erythrocyte membrane (mouse, UniProt P14220 1-168); experiment: equilibrium binding to mouse erythrocytes by flow cytometry, one-site binding fit
[2] = target: T1, mouse glycophorin-A (GYPA) on the …; experiment: flow cytometry of mouse erythrocytes incubated with the OVA conjugate, OVA detected on the cell surface

Kd [1]: 6.2 nM
B1: ERY1-OVA (ERY1 peptide chemically conjugated to ovalbumin through SMCC) (other)
peptide: WMVLPWLPGTLDGGSGCRG
chain: GSIGAASMEFCFDVFKELKVHHANENIFYCPIAIMSALAMVYLGAKDSTRTQINKVVRFDKLPGFGDSIEAQCGTSVNVHSSLRDILNQITKPNDVYSFSLASRLYAEERYPILPEYLQCVKELYRGGLEPINFQTAADQARELINSWVESQTNGIIRNVLQPSSVDSQTAMVLVNAIVFKGLWEKAFKDEDTQAMPFRVTEQESKPVQMMYQIGLFRVASMASEKMKILELPFASGTMSMLVLLPDEVSGLEQLESIINFEKLTEWTSSNVMEERKIKVYLPRMKMEEKYNLTSVLMAMGITDVFSSSANLSGISSAESLKISQAVHAAHAEINEAGREVVGSAEAGVDAASVSEEFRADHPFLFCIKHIATNAVLFFGRCVSP
modifications: lysine side chains carry SMCC linked to the cysteine of the ERY1 peptide; C-terminal amide (CONH2); cysteine side chain conjugated through SMCC to lysine side chains of OVA
notes: also called ERY1-conjugated protein

binding result [2]: no binding
B2: MIS-OVA (OVA conjugated with the mismatch peptide through SMCC) (other)
peptide: PLLTVGMDLWPWGGSGCRG
chain: B1 chain
modifications: lysine side chains carry SMCC linked to the cysteine of the MIS peptide; C-terminal amide (CONH2); cysteine side chain conjugated through SMCC to lysine side chains of OVA
